What was measured:
TS cells = test: Cell death of sorted GFP-positive TS cells by microscopy; type: cell-based, human; conditions: sorted TS cells (>95% GFP), 24 hr after cell sorting
Experimental: FIG. 11. Anti-ALK siRNA inhibits growth and induces cell death in TS cells. ShRNA A5 leads ALK+ ALCL cells to cell death. Human TS cells were transduced with pSRG or pSRG-A5 constructs, and […], GFP-positive cells were sorted using MoFo sorter. (A) Highly enriched GFP+ cells (>95%) were evaluated (24 hours after sorting) using a light or fluorescent inverted microscope, (bright field: left panels). 5×10^3/well cells were plated (96-well plate) and the percentage of alive cells was calculated overtime (B). Total number of live cells was also calculated at day 3, 4 and 6 after sorting (C).
To study whether ALK siRNA could promote cell death, highly enriched A5-GFP-positive TS cells by cell sorting (>95% GFP) were evaluated by microscopy. […] These findings were confirmed with enumeration of viable cells by trypan blue exclusion (FIG. 11B) and proliferating cell quantitation using total cell counts (FIG. 11C).

NPM-ALK [1] = test: NPM-ALK protein expression in MEF NPM-ALK Tet-Off cells after retroviral infection, Western blot; type: cell-based
Experimental: FIG. 9. Anti-ALK siRNA inhibits NPM-ALK-mediated transformation of MEF cells. (A) Suppression of NPM-ALK expression leads to down-regulation of known downstream targets of ALK. MEF NPM-ALK Tet-Off cells were infected with pSRG-A5 virus, transduction efficiency was assessed 72 hours post-infection by FACS analysis of GFP (40%). pSRG-A5-infected cells were further enriched by selection with 1 mg/ml puromycin for 1 week (90%). NPM-ALK expression was inhibited by doxycyclin withdrawn. Protein expression was evaluated culturing (72 hr) semi-confluent cells in absence of doxycyclin. (B) shRNA A-5 expression leads to G0/G1 cell cycle arrest. DNA content analysis was performed in cells grown to confluence and kept in 0.2% serum medium for 72 hours in presence of absence of doxycyclin. Cells were then listed and analysed by Western blotting with indicated antibodies. […] Tumor growth was monitored weekly for 4 weeks. […]
Retroviral supernatants were produced by co-transfection of GP-293 packaging cells with pSRGAx and pVSV-G (Clontech, Palo Alto, Calif., USA); virus-containing supernatants were collected at 48, 72 and 90 hours, filtrated and concentrated by centrifugation. […] Transfection and infection efficiencies were calculated using the percentage of GFP positive cells, identified using fluorescence microscopy (Leica IM RE2) or flow cytometry (FACSCalibur, BD Biosciences, San Josè, Calif., USA). […]

ATIC-ALK = test: Co-transfection of pSUPER shRNA vectors with Pallino ATIC-ALK in HEK-293T cells, Western blot; type: cell-based; conditions: transfected HEK-293T cells
Experimental: (§1) FIG. 8. Selection of anti-ALK shRNA. […] HEK-293T were co-transfected with Pallino NPM-ALK (2 μg) and one of six different pSUPER vectors carrying shRNA specific for ALK sequences (pS-A1-6)(8 μg). Cells were lysed 72 hours post-transfection and immunoblotted with the indicated antibodies. −=no transfection; A pSUPER-shRNA carrying a p53 specific sequence was used a unrelated control. (pS-p53) (B) ALK5 (A5) inhibits ATIC-ALK protein expression. HEK-293T were co-transfected with Pallino ATIC-ALK and pSUPER-ALK shRNA interfering sequences as above. Expression of ATIC-ALK protein was determined by Western blot analysis as described above. (C) ALK5 (A5) inhibits ALK receptor (ALK-R) protein expression. HEK-293T cells were co-transfected with Pallino ALK-R and pSUPER-ALK shRNA interfering sequences as above.
(§2) Transfections of HEK-293T, GP-293, and MEF Tet-Off cells were performed with Effectene reagent (Qiagen, Valencia, Calif., USA), according to the manufacturer's instructions.
(§3) For Western Blot analysis, cells were lysed (50 mM Tris-HCl, pH 7.4, 150 mM NaCl, 0.1% Triton X-100, 5 mM EDTA, 1 mM Na3VO4, and 1 mM phenylmethyl sulfonyl fluoride and protease inhibitors). Total protein lysates (20 μg) were electrophoresed in SDS-PAGE gel and transferred onto nitrocellulose membranes. […]

ALK receptor (ALK-R) = test: Co-transfection of pSUPER shRNA vectors with Pallino ALK-R in HEK-293T cells, Western blot; type: cell-based; conditions: transfected HEK-293T cells
Experimental: as §1, §2, §3

NPM-ALK [2] = test: Co-transfection of pSUPER shRNA vectors with Pallino-NPM-ALK in HEK-293T cells, Western blot; type: cell-based; conditions: HEK-293T co-transfected with Pallino-NPM-ALK; after 48 hrs from transfection
Experimental: as §1, with “Cells were lysed 72 hours post-transfection and immunoblotted with the indicated antibodies. −=no transfection; A pSUPER-shRNA carrying a p53 specific sequence was used a unrelated control.” left out
as §2
as §3, with “membranes. The filters were first blocked (5% low fat milk in PBS with 0.1% Tween 20; 1 h at RT), and then incubated with the primary antibodies for 1 hour at room temperature.” for “membranes.”

MEF-NPM-ALK cells = test: Morphology of MEF-NPM-ALK cells after infection; type: cell-based
Text: Since NPM-ALK expression in MEF cells leads to relevant morphological changes including cell elongation, bipolarized formations and loose plate attachment, the effect of inhibition of NPM-ALK expression on the phenotype of these cells was then studied. […] Furthermore, highly enriched GFP^+, puromycin resistant pSRG-A5MEF-NPM-ALK cells injected into athymic Nu/Nu mice (1×10^6 cells) grew poorly compared to control infected cells (FIG. 9 D).

B1: A5: short hairpin oligonucleotide against cytoplasmic domain of ALK, SEQ ID NO: 5; in pSUPER vector (nucleic acid)
chain: GATCCCCGGGCGAGCTACTATAGAAATTCAAGAGATTTCTATAGTAGCTCGCCCTTTTTGGAAA
- cells with shrunken, picnotic nuclei lacking detectable GFP expression (TS cells): > 50%
- NPM-ALK protein expression (NPM-ALK [1]; MEF NPM-ALK Tet-Off after doxycyclin withdrawal, proportional to percentage of GFP positive cells): significant down-regulation
- NPM-ALK level in MEF-NPM-ALK cells after infection (NPM-ALK [1]; MEF-NPM-ALK cells): very low levels
- expression of ATIC-ALK (ATIC-ALK): successfully abrogate expression
- expression of ALK receptor (ALK receptor (ALK-R)): successfully abrogate expression
- down-regulation of the protein level of NPM-ALK (NPM-ALK [2]): > 90%
- cellular morphology (transformed phenotype) (MEF-NPM-ALK cells): regained their normal pre-transformed cellular features
